Test results published in PMC5624781.

How the values were obtained:
[1] = molecular target: GST-EEA1_(36-91) (UniProt Q15075); assay: BLI; BLItz system (ForteBio); 0.5 µM GST-Rabaptin5_(551-862) or GST-EEA1_(36-91) immobilised on anti-GST sensors; GppNHP-loaded Rab5 or mUbRab5 at several concentrations in solution; 50 mM Tris-HCl, 150 mM NaCl, 10 mM MgCl2, 1 mM GppNHP; global fit, Kd = koff/kon
[2] = molecular target: GST-Rabaptin5_(551-862) (UniProt Q15276); assay: as above
[3] = molecular target: EEA1 (Homo sapiens) (UniProt Q15075); settings: cited from earlier work

Substance | Kd [1] | Kd [2] | further results
mUbRab5_(K165), chemically conjugated monoubiquitinated Rab5 (ubiquitin G76C disulfide-linked to Rab5 K165C) (from UniProt P0CG48 1-76) | 4.7 µM | – | –
mUbRab5_(K116), chemically conjugated monoubiquitinated Rab5 (ubiquitin G76C disulfide-linked to Rab5 K116C) (from UniProt P0CG48 1-76) | 18.4 µM | 8 µM | –
Rab5 (from UniProt P20339) | – | – | Kd [3]: 2.4 µM
mUbRab5_(K140), chemically conjugated monoubiquitinated Rab5 (ubiquitin G76C disulfide-linked to Rab5 K140C) (from UniProt P0CG48 1-76) | 108 µM | 37.7 µM | –
Rab5 (unmodified Rab5a) (from UniProt P20339 1-215) (natural protein) | 5.8 µM | 8 µM | koff [1]: 0.0026 s⁻¹; kon [1]: 450 M⁻¹ s⁻¹; koff [2]: 0.0022 s⁻¹; kon [2]: 660 M⁻¹ s⁻¹
